In patent publication US20150023979A1 (VALDOSPAN, published 2015) one finds binding result, Kd and kon data, which are given here for two molecules.

Experiment [1] concerns the target T1, HPV39 E7 protein, recombinant (His-TEV-E7 fusion from E. coli) (Human Papilloma Virus type 39 (HPV39), UniProt P24837 1-109, CKII phosphorylation of the consensus site serine in the antigen preparation of Example 2).
T1 construct: mature; also called VE7_HPV39; not shown: N-terminal 6x Histidine tag and TEV cleavage site of the vector
T1 sequence: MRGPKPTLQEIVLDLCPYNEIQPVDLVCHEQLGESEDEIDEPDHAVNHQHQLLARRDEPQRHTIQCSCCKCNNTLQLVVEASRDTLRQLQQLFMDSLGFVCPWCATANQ
The experiment in a line: ELISA and dot-blot, semiquantitative crossreactivity (++ strong positive). (In general: ELISA stands for enzyme-linked immunosorbent assay.)

The target in experiment [2] is T2, HPV45 E7 protein, recombinant (His-TEV-E7 fusion from E. coli) (Human Papilloma Virus type 45 (HPV45), UniProt P21736 1-106, CKII phosphorylation of the consensus site serines in the antigen preparation of Example 2; biotin on primary amines in the SPR assay).
T2 construct: mature; also called VE7_HPV45; not shown: N-terminal 6x Histidine tag and TEV cleavage site of the vector
T2 sequence: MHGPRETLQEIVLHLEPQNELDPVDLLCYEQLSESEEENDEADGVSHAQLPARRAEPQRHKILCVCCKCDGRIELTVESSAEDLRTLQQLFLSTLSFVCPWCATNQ
The experiment in a line: SPR (BIAcore X100), biotin-E7 on streptavidin SA chip, antibody as analyte, bivalent analyte fit, 25 C. (In general: In SPR one partner is held on a chip, and binding of the other changes the refractive index at the surface.)

In experiment [3] the target is T3, HPV18 E7 protein, recombinant (His-TEV-E7 fusion from E. coli) (Human Papilloma Virus type 18 (HPV18), UniProt P06788 1-105, CKII phosphorylation of the consensus site serines in the antigen preparation of Example 2; biotin on primary amines in the SPR assay).
T3 construct: mature; also called VE7_HPV18; not shown: N-terminal 6x Histidine tag and TEV cleavage site of the vector
T3 sequence: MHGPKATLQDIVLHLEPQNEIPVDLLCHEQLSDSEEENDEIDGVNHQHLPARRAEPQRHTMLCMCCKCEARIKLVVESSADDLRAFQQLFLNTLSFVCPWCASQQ
The experiment is described as above.

The target in experiment [4] is T4, HPV52 E7 protein, recombinant (His-TEV-E7 fusion from E. coli) (Human Papilloma Virus type 52 (HPV52), UniProt P36831 1-99, CKII phosphorylation of the consensus site serines in the antigen preparation of Example 2).
T4 construct: mature; also called VE7_HPV52; not shown: N-terminal 6x Histidine tag and TEV cleavage site of the vector
T4 sequence: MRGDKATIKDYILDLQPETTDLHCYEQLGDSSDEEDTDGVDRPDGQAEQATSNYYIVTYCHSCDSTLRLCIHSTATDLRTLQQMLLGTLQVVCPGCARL
Nature of the experiment: ELISA, HPV52E7 immobilised on polystyrene plates in 3-fold dilution steps, detected with ACAB452.

The target in experiment [5] is T5, HPV58 E7 protein, recombinant (His-TEV-E7 fusion from E. coli) (Human Papilloma Virus type 58 (HPV58), UniProt P26557 1-98, CKII phosphorylation of the consensus site serines in the antigen preparation of Example 2).
T5 construct: mature; also called VE7_HPV58; not shown: N-terminal 6x Histidine tag and TEV cleavage site of the vector
T5 sequence: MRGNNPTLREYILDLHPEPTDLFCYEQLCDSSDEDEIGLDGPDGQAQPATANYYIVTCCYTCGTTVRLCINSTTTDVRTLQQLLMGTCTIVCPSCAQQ
The experiment in a line: ELISA and dot-blot, semiquantitative crossreactivity (++ strong positive).

B1: ACAB452 (antibody, IgG1, V domains shown)
VH: DVQLQESGPGLVKPSQSLSLTCTVTGYSITSDYAWNWIRQFPGNKLEWVGYITYSGSTNYNPSLKSRISITRDTSKNQFFLQFNSVTSEDTATYFCARSWFAYWGQGTLVTVSS
VL: DIVMTQTPLSLPVSLGDQASISCRSSQSLVHSNGNTYLHWFLQKPGQSPKLLIYKVSNRFSGVPDRFSGSGSGTDFTLKISRVEAEDLGVYFCLQSAHVPLTFGAGTKLELTR
notes: also called HPV45E7 IgG1 antibody ACAB452
By kon is commonly meant the rate constant with which the complex forms. For B1, the binding result is on record as “binds” in experiment [1] and “no binding (tested: 800 nM immobilised antigen (per legend))” in experiment [4]. Moreover, in experiment [2], the Kd was found to be 10.6 nM. For the same molecule, the kon in experiment [2] was found to be 52100 M⁻¹ s⁻¹; in experiment [3] it was 94700 M⁻¹ s⁻¹.

B2: ACAB164 (antibody, V domains shown)
VH: EVQLQQSGLALVQPGASVKISCRTSGYTFTEYTLHWVKQSHGKSLEWIGGINPNNGSPKYNQKFKGKATLTVDKSSSTAYMELRSLTSEDSAVYYCARLDINSFFDYWGQGTTLTVSS
VL: DVVMTQSPLSLPVSLGDQASISCRSSQSLVHSNGNTYLQWYLQKPGQSPKLLIYKLSNRFSGVPDRFSGSGSGTDFTLKISRVEAEDLGVYSCSQTTHVPPTFGGGTKLEIKR
notes: the printed entries run on into the first residues of the constant domains; also called HPV16E7 IgG2a antibody ACAB164
B2: the binding result in experiment [5] is “binds”.
